According to the supplement of paper PMC5998384:

How the values were obtained:
HeLa Kyoto [1] = assay: solubility in G1/S (NP-40 vs SDS abundance) (log2 ratio); higher = more soluble; details: cell cycle stage: G1/S
HeLa Kyoto [2] = assay: melting temperature (median over replicates), in situ; higher = more thermally stable
HeLa Kyoto [3] = assay: solubility change mitosis vs G1/S (difference of NP-40 vs SDS log2 ratios) (log2 ratio difference); higher = more soluble in mitosis
HeLa Kyoto [4] = assay: thermal stability score vs G1/S (z-score of summed log2 fold changes over temperatures); higher = more thermally stable than in G1/S
[5] = cell cycle stage: early G1 (4.5 h after nocodazole release)
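Throughout, for melting temperature (median over replicates), in situ: HeLa Kyoto cells synchronized by double thymidine or nocodazole block, proteins quantified by TMT10plex mass spectrometry, three independent biological replicates.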
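Throughout, for solubility change mitosis vs G1/S (difference of NP-40 vs SDS log2 ratios): synchronized HeLa Kyoto cells (double thymidine block for G1/S, nocodazole release for mitosis), protein amounts in NP-40 versus SDS lysates quantified by mass spectrometry, three biological replicates.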
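Throughout, for solubility in G1/S (NP-40 vs SDS abundance): HeLa Kyoto cells arrested at G1/S by double thymidine block, proteins quantified by TMT10plex mass spectrometry in mild NP-40 versus SDS extracts, three biological replicates.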
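Throughout, for thermal stability score vs G1/S (z-score of summed log2 fold changes over temperatures): synchronized HeLa Kyoto cells, proteins quantified by TMT10plex mass spectrometry, three biological replicates, mitosis taken 0.5 h after nocodazole release, G1/S directly after double thymidine block.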

Sequence of TAF15 (chain, as listed by the source): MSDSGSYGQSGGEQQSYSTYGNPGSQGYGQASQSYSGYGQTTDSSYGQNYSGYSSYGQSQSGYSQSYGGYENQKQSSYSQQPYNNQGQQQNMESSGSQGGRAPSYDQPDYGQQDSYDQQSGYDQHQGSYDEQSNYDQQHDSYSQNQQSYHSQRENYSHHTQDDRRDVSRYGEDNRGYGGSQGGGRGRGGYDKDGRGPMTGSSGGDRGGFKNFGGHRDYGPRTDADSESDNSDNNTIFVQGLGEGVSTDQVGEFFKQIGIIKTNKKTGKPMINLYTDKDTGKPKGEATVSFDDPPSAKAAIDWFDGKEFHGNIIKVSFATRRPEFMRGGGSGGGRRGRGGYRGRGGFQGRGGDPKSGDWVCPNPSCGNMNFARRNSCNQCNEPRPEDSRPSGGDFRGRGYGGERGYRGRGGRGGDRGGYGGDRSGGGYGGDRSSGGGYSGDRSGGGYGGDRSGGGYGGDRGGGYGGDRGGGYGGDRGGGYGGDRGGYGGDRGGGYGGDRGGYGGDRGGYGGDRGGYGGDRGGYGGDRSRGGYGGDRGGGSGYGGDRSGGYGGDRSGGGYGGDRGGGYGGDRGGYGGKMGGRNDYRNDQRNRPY

Substance	solubility in G1/S (log2) (HeLa Kyoto [1])	melting temperature (HeLa Kyoto [2]; cell cycle stage: G1/S) [°C]	melting temperature (HeLa Kyoto [2]; cell cycle stage: mitosis) [°C]	solubility change mitosis (log2) (HeLa Kyoto [3])	thermal stability score (HeLa Kyoto [4]; [5])	thermal stability score (HeLa Kyoto [4]; cell cycle stage: mitosis)
MLRTSVLRLLGRTGASRLSLLEDFGPRYYSSGSLSAGDDACDVRAYFTTPIFYVNAAPHIGHLYSALLADALCRHRRLRGPSTAATRFSTGTDEHGLKIQQAAATAGLAPTELCDRVSEQFQQLFQEAGISCTDFIRTTEARHRVAVQHFWGVLKSRGLLYKGVYEGWYCASDECFLPEAKVTQQPGPSGDSFPVSLESGHPVSWTKEENYIFRLSQFRKPLQRWLRGNPQAITPEPFHHVVLQWLDEELPDLSVSRRSSHLHWGIPVPGDDSQTIYVWLDALVNYLTVIGYPNAEFKSWWPATSHIIGKDILKFHAIYWPAFLLGAGMSPPQRICVHSHWTVCGQKMSKSLGNVVDPRTCLNRYTVDGFRYFLLRQGVPNWDCDYYDEKVVKLLNSELADALGGLLNRCTAKRINPSETYPAFCTTCFPSEPGLVGPSVRAQAEDYALVSAVATLPKQVADHYDNFRIYKALEAVSSCVRQTNGFVQRHAPWKLNWESPVDAPWLGTVLHVALECLRVFGTLLQPVTPSLADKLLSRLGVSASERSLGELYFLPRFYGHPCPFEGRRLGPETGLLFPRLDQSRTWLVKAHRT [MARS2]	0.0996	55.2	55.5	-0.083	-3.14	-3.9
MGNAGSMDSQQTDFRAHNVPLKLPMPEPGELEERFAIVLNAMNLPPDKARLLRQYDNEKKWELICDQERFQVKNPPHTYIQKLKGYLDPAVTRKKFRRRVQESTQVLRELEISLRTNHIGWVREFLNEENKGLDVLVEYLSFAQYAVTFDFESVESTVESSVDKSKPWSRSIEDLHRGSNLPSPVGNSVSRSGRHSALRYNTLPSRRTLKNSRLVSKKDDVHVCIMCLRAIMNYQYGFNMVMSHPHAVNEIALSLNNKNPRTKALVLELLAAVCLVRGGHEIILSAFDNFKEVCGEKQRFEKLMEHFRNEDNNIDFMVASMQFINIVVHSVEDMNFRVHLQYEFTKLGLDEYLDKLKHTESDKLQVQIQAYLDNVFDVGALLEDAETKNAALERVEELEENISHLSEKLQDTENEAMSKIVELEKQLMQRNKELDVVREIYKDANTQVHTLRKMVKEKEEAIQRQSTLEKKIHELEKQGTIKIQKKGDGDIAILPVVASGTLSMGSEVVAGNSVGPTMGAASSGPLPPPPPPLPPSSDTPETVQNGPVTPPMPPPPPPPPPPPPPPPPPPPPPLPGPAAETVPAPPLAPPLPSAPPLPGTSSPTVVFNSGLAAVKIKKPIKTKFRMPVFNWVALKPNQINGTVFNEIDDERILEDLNVDEFEEIFKTKAQGPAIDLSSSKQKIPQKGSNKVTLLEANRAKNLAITLRKAGKTADEICKAIHVFDLKTLPVDFVECLMRFLPTENEVKVLRLYERERKPLENLSDEDRFMMQFSKIERLMQKMTIMAFIGNFAESIQMLTPQLHAIIAASVSIKSSQKLKKILEIILALGNYMNSSKRGAVYGFKLQSLDLLLDTKSTDRKQTLLHYISNVVKEKYHQVSLFYNELHYVEKAAAVSLENVLLDVKELQRGMDLTKREYTMHDHNTLLKEFILNNEGKLKKLQDDAKIAQDAFDDVVKYFGENPKTTPPSVFFPVFVRFVKAYKQAEEENELRKKQEQALMEKLLEQEALMEQQDPKSPSHKSKRQQQELIAELRRRQVKDNRHVYEGKDGAIEDIITVLKTVPFTARTAKRGSRFFCEPVLTEEYHY [FMNL2]	-0.0432	50.8	–	-0.0897	0.436	0.612
MSTPAVPQDLQLPPSQRAQSAFKEQRRQKLKEHLLRRKTLFAYKQENEMLSSSRDQRVVTSEDQVQEGTKVLKLKTKMADKENMKRPAESKNNTVVGKHCIPLKPSNELTNSTVVIDTHKPKDSNQTPHLLLTEDDPQSQHMTLSQAFHLKNNSKKKQMTTEKQKQDANMPKKPVLGSYRGQIVQSKINSFRKPLQVKDESSAATKKLSATIPKATKPQPVNTSSVTVKSNRSSNMTATTKFVSTTSQNTQLVRPPIRSHHSNTRDTVKQGISRTSANVTIRKGPHEKELLQSKTALSSVKTSSSQGIIRNKTLSRSIASEVIARPASLSNDKLMEKSEPVDQRRHTAGKAIVDSRSAQPKETSEERKARLSEWKAGKGRVLKRPPNSVVTQHEPAGQNEKPVGSFWTTMAEEDEQRLFTEKVNNTFSECLNLINEGCPKEDILVTLNDLIKNIPDAKKLVKYWICLALIEPITSPIENIIAIYEKAILAGAQPIEEMRHTIVDILTMKSQEKANLGENMEKSCASKEEVKEVSIEDTGVDVDPEKLEMESKLHRNLLFQDCEKEQDNKTKDPTHDVKTPNTETRTSCLIKYNVSTTPYLQSVKKKVQFDGTNSAFKELKFLTPVRRSRRLQEKTSKLPDMLKDHYPCVSSLEQLTELGRETDAFVCRPNAALCRVYYEADTT [CKAP2]	-0.733	51	49.3	0.657	-1.31	-0.259
MYHSLSETRHPLQPEEQEVGIDPLSSYSNKSGGDSNKNGRRTSSTLDSEGTFNSYRKEWEELFVNNNYLATIRQKGINGQLRSSRFRSICWKLFLCVLPQDKSQWISRIEELRAWYSNIKEIHITNPRKVVGQQDLMINNPLSQDEGSLWNKFFQDKELRSMIEQDVKRTFPEMQFFQQENVRKILTDVLFCYARENEQLLYKQGMHELLAPIVFVLHCDHQAFLHASESAQPSEEMKTVLNPEYLEHDAYAVFSQLMETAEPWFSTFEHDGQKGKETLMTPIPFARPQDLGPTIAIVTKVNQIQDHLLKKHDIELYMHLNRLEIAPQIYGLRWVRLLFGREFPLQDLLVVWDALFADGLSLGLVDYIFVAMLLYIRDALISSNYQTCLGLLMHYPFIGDVHSLILKALFLRDPKRNPRPVTYQFHPNLDYYKARGADLMNKSRTNAKGAPLNINKVSNSLINFGRKLISPAMAPGSAGGPVPGGNSSSSSSVVIPTRTSAEAPSHHLQQQQQQQRLMKSESMPVQLNKGLSSKNISSSPSVESLPGGREFTGSPPSSATKKDSFFSNISRSRSHSKTMGRKESEEELEAQISFLQGQLNDLDAMCKYCAKVMDTHLVNIQDVILQENLEKEDQILVSLAGLKQIKDILKGSLRFNQSQLEAEENEQITIADNHYCSSGQGQGRGQGQSVQMSGAIKQASSETPGCTDRGNSDDFILISKDDDGSSARGSFSGQAQPLRTLRSTSGKSQAPVCSPLVFSDPLMGPASASSSNPSSSPDDDSSKDSGFTIVSPLDI [TBC1D5]	0.207	50.7	50.1	-0.272	0.296	0.901
TAF15	-0.786	51.1	53.1	0.12	-0.357	-4.49
TNKS1BP1	-0.0801	57.1	59.8	0.0438	-3.49	-3.6
